Where two headings read alike, the source gives them in different places.
Key:
FcγRs = test: cell-based or functional assay
[1] = target: C1q protein from human serum (human) (UniProt P02745); test: FACS, spheroplasts, 10 nM C1q-PE
[2] = target: FcγRIIb-GST (dimeric FcγRIIb) (human) (UniProt P31994)
[3] = target: FcγRIIIa-V158-GST (dimeric FcγRIIIaV158) (human) (UniProt P08637)
[4] = target: FcγRIIIa-V158-Streptavidin (tetrameric) (human) (UniProt P08637)
[5] = target: C1q protein from human serum (human) (UniProt P02745); test: FACS, spheroplasts, 10 nM C1q-PE, high-salt buffer (FIG. 3C)
[6] = target: C1q protein from human serum (human) (UniProt P02745); test: FACS, cell display, 10 nM C1q-PE
[7] = target: C1q protein from human serum (human) (UniProt P02745); test: FACS, 10 nM C1q-PE; reference itself
[8] = target: FcγRIIIa-V158-Streptavidin (tetrameric) (human) (UniProt P08637); remark: listed apart in the source

Chain of C1q protein from human serum (human) (P02745 23-245, chain 1 of 3): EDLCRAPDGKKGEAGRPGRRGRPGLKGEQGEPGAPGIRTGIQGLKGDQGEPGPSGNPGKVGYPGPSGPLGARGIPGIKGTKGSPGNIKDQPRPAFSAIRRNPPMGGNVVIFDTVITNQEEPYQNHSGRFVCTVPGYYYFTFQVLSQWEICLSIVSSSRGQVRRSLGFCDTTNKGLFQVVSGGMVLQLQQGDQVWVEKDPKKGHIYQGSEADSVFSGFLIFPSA
Chain of C1q protein from human serum (human) (P02746 28-253, chain 2 of 3, further chain): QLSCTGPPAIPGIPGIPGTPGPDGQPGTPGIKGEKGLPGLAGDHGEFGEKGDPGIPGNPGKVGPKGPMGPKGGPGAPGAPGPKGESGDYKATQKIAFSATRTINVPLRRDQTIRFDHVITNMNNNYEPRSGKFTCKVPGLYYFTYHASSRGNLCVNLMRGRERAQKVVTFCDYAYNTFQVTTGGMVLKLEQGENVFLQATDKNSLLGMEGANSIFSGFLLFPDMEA
Chain of C1q protein from human serum (human) (P02747 29-245, chain 3 of 3, further chain): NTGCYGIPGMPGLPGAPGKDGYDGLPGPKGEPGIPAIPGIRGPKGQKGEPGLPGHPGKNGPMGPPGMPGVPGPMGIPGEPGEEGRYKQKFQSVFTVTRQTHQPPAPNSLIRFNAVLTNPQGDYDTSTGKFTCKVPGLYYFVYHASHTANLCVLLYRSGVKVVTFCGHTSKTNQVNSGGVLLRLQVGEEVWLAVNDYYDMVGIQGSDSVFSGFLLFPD
Chain of FcγRIIIa-V158-Streptavidin (tetrameric) (human) (P08637 17-208 F176V): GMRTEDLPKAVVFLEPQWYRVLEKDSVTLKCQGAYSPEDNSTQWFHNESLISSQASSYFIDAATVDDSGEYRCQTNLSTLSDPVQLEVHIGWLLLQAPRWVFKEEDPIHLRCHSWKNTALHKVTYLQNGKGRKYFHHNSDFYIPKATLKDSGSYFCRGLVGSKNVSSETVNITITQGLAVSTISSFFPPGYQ
Chain of FcγRIIb-GST (dimeric FcγRIIb) (human) (P31994 43-217): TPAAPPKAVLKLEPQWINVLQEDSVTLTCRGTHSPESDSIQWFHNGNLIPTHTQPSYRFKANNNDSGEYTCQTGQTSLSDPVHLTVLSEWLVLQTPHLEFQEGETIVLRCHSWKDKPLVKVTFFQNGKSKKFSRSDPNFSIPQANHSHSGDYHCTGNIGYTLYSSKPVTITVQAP
Chain of FcγRIIIa-V158-GST (dimeric FcγRIIIaV158) (human) (P08637 17-208 F176V): as the sequence (P08637 17-208 F176V) above

Substance	ADCC EC50, Raji targets, PBMC (FcγRs) [nM]	MFI [1]	MFI [2]	MFI [3]	MFI [4]	MFI [5]	MFI [6]	Increasing Fold [7] [fold]	MFI [8]
Rituximab (glycosylated wild-type IgG1) (antibody)	2.11	–	–	–	–	–	–	–	–
wild-type aglycosylated IgG displayed on E. coli spheroplasts (antibody)	–	54.7	4.5	3.8	36.6	14.9	23.5	1	6.44
